One molecule from patent US20230227548A1 can be followed below.

The target of the experiment is murine GPRC5D (murine) (UniProt Q9JIL6). In words: FACS, murine GPRC5D cells. On the technique in general: Flow cytometry measures light scatter and fluorescence of single cells or particles in a stream.
murine GPRC5D (murine), sequence (Q9JIL6 whole entry): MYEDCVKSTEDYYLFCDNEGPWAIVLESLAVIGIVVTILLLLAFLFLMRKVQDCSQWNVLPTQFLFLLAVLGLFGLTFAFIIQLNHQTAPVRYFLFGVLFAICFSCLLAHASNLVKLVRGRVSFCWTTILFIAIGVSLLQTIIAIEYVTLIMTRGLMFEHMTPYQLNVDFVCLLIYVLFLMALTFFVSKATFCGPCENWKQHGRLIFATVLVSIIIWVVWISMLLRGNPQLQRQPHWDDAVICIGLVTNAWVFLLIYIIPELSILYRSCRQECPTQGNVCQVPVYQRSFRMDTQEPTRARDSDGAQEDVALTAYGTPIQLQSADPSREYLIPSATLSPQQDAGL

B1: GCDB72 (bispecific antibody, IgG4, V domains shown)
VH 1: EVQLVESGGGLVQPGGSLRLSCAASGFTFNTYAMNWVRQAPGKGLEWVARIRSKYNNYATYYAASVKGRFTISRDDSKNSLYLQMNSLKTEDTAVYYCARHGNFGNSYVSWFAYWGQGTLVTVSS
VL 1: QTVVTQEPSLTVSPGGTVTLTCRSSTGAVTTSNYANWVQQKPGQAPRGLIGGTNKRAPGTPARFSGSLLGGKAALTLSGVQPEDEAEYYCALWYSNLWVFGGGTKLTVL
VH 2: QVQLVQSGAEVKKPGASVKVSCKASGYSFTGYTMNWVRQAPGQGLEWMGLINPYNSDTNYAQKLQGRVTMTTDTSTSTAYMELRSLRSDDTAVYYCARVALRVALDYWGQGTLVTVSS
VL 2: DIQMTQSPSSLSASVGDRVTITCKASQNVATHVGWYQQKPGKAPKRLIYSASYRYSGVPSRFSGSGSGTEFTLTISNLQPEDFATYYCQQYNRYPYTFGQGTKLEIK
As for B1, the MFI is 481.
